These results are taken from patent US20240392003A1 (NUMAB THERAPEUTICS, published 2024).

Assay [1] addresses T1, recombinant human ROR1 protein (Fc-Tag, Acro Biosystems RO1-H5250) (human, UniProt Q01973 30-406).
T1 construct: Bought; also called hROR1; recombinant human ROR1 ECD; not shown: Fc tag
Put plainly: SPR; hROR1-Fc immobilized. For orientation: In SPR one partner is held on a chip, and binding of the other changes the refractive index at the surface.

In assay [2] the target is T2, human ROR1 expressed on cells (human, UniProt Q01973 30-937).
T2 construct: whole, on cells; One molecule for cell-surface ROR1 on all cell lines; the cell line is named under assay; also called hROR1; plasma membrane human ROR1
The experiment in a line: flow cytometry, MDA-MB-231 cells; mean of two experiments. On the technique in general: In flow cytometry, cells or beads pass a laser one at a time.

Assay [3] addresses T1, recombinant human ROR1 protein (Fc-Tag, …). The experiment in a line: SPR; hROR1-Fc immobilized. This is another data set of the same source.
Assay [4] has as its target T2, human ROR1 expressed on cells. Put plainly: flow cytometry, MDA-MB-231 cells; mean of three experiments.
Assay [5] has as its target T3, cynomolgus monkey serum albumin (Molecular Innovations CYSA) (cynomolgus monkey).
T3 construct: also called cSA; CSA
The experiment in a line: SPR; cSA immobilized, pH 5.5.

Assay [6] addresses T3, cynomolgus monkey serum albumin …. Put plainly: SPR; cSA immobilized, pH 7.4.
Assay [7] deals with T4, mouse serum albumin (Sigma-Aldrich A3559) (mouse, UniProt P07724 25-608).
T4 construct: also called mSA; MSA
The experiment in a line: SPR; mSA immobilized, pH 5.5.

Assay [8] concerns the target T5, human serum albumin (Sigma-Aldrich A3782) (human, UniProt P02768 25-609).
T5 construct: also called hSA; HSA
Put plainly: SPR; hSA immobilized, pH 5.5.

Assay [9] concerns the target T4, mouse serum albumin (Sigma-Aldrich …). The experiment in a line: SPR; mSA immobilized, pH 7.4; biphasic binding corrected with bulk correction in 1:1 fit.
For assay [10] the target is unchanged. Put plainly: SPR; mSA immobilized, pH 7.4.
The target is the same in assay [11]. The experiment in a line: SPR; mSA immobilized, pH 5.5; biphasic binding corrected with bulk correction in 1:1 fit.
For assay [12], the target named is T5, human serum albumin (Sigma-Aldrich …). The experiment in a line: SPR; hSA immobilized, pH 7.4.

Read-outs that look alike come from different tables or passages of the source.

B1: PRO2062 (scFv, V domains shown)
VH: QSQLVESGGGLVQPGGSLRLSCAVSGLSLSRNAMSWVRQAPGKGLEWIGIILTSGSTYYASWAKGRFTISKDNSKNTVYLQMNSLRAEDTAVYFCVRGIASSSLKSFWGQGTLVTVSS
VL: AQQLTQSPSSLSASVGDRVTITCQASQNVWNNNYLSWFQQKPGKPPKLLIVTASTLASGVSSRFSGSGSGTDFTLTISSLQPEDFATYYCAGGFSGEIRAFGTGTKVTVLG
notes: scFv (Full graft); also called 55-39-G02-sc02
As for B1, in [1], the Kd (commonly the concentration at which binding is half-saturated) was determined as 0.103 nM; the koff (in general, a measure of how fast the partners let go of each other) stood at 0.000455 s⁻¹; the kon (usually the rate constant with which the complex forms) was 4.45e+06 M⁻¹ s⁻¹. For the same molecule, the EC50 – broadly, the midpoint of the concentration-response curve – in assay [2] is 0.26 nM. Besides, in assay [3], the Kd is 0.0926 nM, the koff was 0.00049 s⁻¹ and the kon worked out at 5.29e+06 M⁻¹ s⁻¹.

B2: PRO2060 (scFv, V domains shown)
VH: QSQVVESGGGLVQPGGSLRLSCAVSGFDLSSYAVSWVRQAPGKGLEWIGIIYPRANTYYASWAKGRFTISKDNSKNTVYLQMNSLRAEDTAVYFCARDRYDSGAYLYTTYFNLWGQGTLVTVSS
VL: DVQMTQSPSSLSASVGDRVTITCRASENIYSGLAWYQQKPGKPPKLLIYRASTLASGVSSRFSGSGSGTDFTLTISSLQPEDFATYYCQGGYYSSSSTYIAFGTGTKVTVLG
notes: scFv (Full graft); also called 55-38-D07-sc02
As for B2, the concentration giving a half-maximal response (EC50) in [4] came out at 2.93 nM. In [1], the dissociation constant Kd worked out at 0.416 nM, the koff stood at 9.79e-05 s⁻¹ and the kon was found to be 250000 M⁻¹ s⁻¹. Besides, in assay [3], the dissociation constant Kd was determined as 0.285 nM, the koff turned out to be 9.56e-05 s⁻¹ and the kon was found to be 335000 M⁻¹ s⁻¹.

B3: PRO2155 (scFv, V domains shown)
VH: EVQLVESGGGLVQPGGSLRLSCAASGFSLSSYAMNWVRQAPGKGLEWIGHINAGDIAYYATWAKGRFTISRDNSKNTVYLQMNSLRAEDTAVYFCARGAGGFSTGPFKLWGQGTLVTVSS
VL: AFELTQSPSSLSASVGDRVTITCQASESINSRLAWYQQKPGQPPKLLIYDASDLTSGVPSRFSGSGSGTDFTLTISSLQPEDFATYYCQGYGGSSTTTFGGGTKLTVLG
notes: scFv; also called 19-04-A10-sc02; anti-hSA scFv
Regarding B3, the Kd in assay [5] amounted to 2.3 nM; in [6], 1.6 nM; in [8] it was 3.3 nM; in assay [9], 9 nM; in assay [11] it was 2.5 nM; in assay [12], 2.2 nM. Moreover, the koff in assay [5] was found to be 0.0021 s⁻¹; in assay [6] it was 0.00091 s⁻¹; in assay [7], 0.0002 s⁻¹; in assay [8], 0.003 s⁻¹; in [10] it was 0.00029 s⁻¹; in [12], 0.0012 s⁻¹. Moreover, the association rate constant (kon) was found to be 910000 M⁻¹ s⁻¹ in assay [5]; 580000 M⁻¹ s⁻¹ in assay [6]; 78000 M⁻¹ s⁻¹ in assay [7]; 900000 M⁻¹ s⁻¹ in assay [8]; 32000 M⁻¹ s⁻¹ in [10]; 550000 M⁻¹ s⁻¹ in assay [12].
